From article PMC5976436, “Structure of a TRPM2 channel in complex with Ca^2+ explains unique gating regulation” (eLife, 2018)

Biological target: the molecule itself
Test: cryo-EM structure; purified nvTRPM2 in Buffer A (20 mM Tris-HCl pH 8.0, 150 mM NaCl, 0.06% digitonin, 1 mM DTT), 5 mg/ml, trace amounts of Ca2+, no ADPR; C4 symmetry

B1: Nematostella vectensis TRPM2 channel (transient receptor potential melastatin 2) (natural protein, UniProt A7T1N0 1-1551, looked up)
chain: MGKDSFTPLYDGGDSSHVHLNKFGSNQLSQSKKSWIARNFSRRECIRFVPKSHDVSRCKCGRPRERHSQQALESGQGSEEWNVASCTTKHPTNAYGEIDFEGYGGQKRAPYLRMSHDTDANLVITLMLKRWNLEIPNLVISVTGGAKSFVLKPRLREMFRRGLIKAAKTTGAWIITGGTNTGVMKHVGEAVKEQQLMFGSDTQVNVIGIATWGIVDKQSDLISEKNGKYPALYSMEPTPGHQGAMLDPNHSHFFLVDDGTEGKYGVEIGMRSRIEEAIMKVKTDSRSEAGSIGVPVVLLVLEGGPNTVATMYELIKKKVPAVVIDGSGRAASVVGFAYNHTIKRNVDGQTINVIDPQYEDEVRAKVVEVFGAKGADKTYSMIKDVLEDEKMISVYSLDGEISQDIDLAILKALLKANRSSPVAQLNLALAWNRIDLAKSDIFTEEQQWTTETLSAAMLTALLDDKAEFAELFLQNGLSMREFLSLDILCKLYAEVPGNTTIKPLLQKEMGKRQVKTIDMDVVGEVIEELMGDMFESYYRKDGHYFGELASYAEGLVLKNRKSSKDLLANINRIDPLPTPYLDVFLWAVLCNRRELARVLWEAGREPMAAALMASRLLKRMASRAQEDNTITDISSDLYDHARLFEERAVGVLDECFNENETLSQTLLVRELDHYSRMTALELAVSAESQDFIAHTSCQVLLTRLWMGTMAMNTRWWKVLVCLYLPVLIFPIIYFVPDEQHERQAAEREHQKSLNQKSSKVKSHKEKNDAPVVPVYRSKEEKAVSNDEEARVGTENEEEDFQLEDYIPEIREDDSMEVIMRNKKLGFCDRIMHFYSAPFSKFVGNVVGYLAFIFLYAYVVLFNFPRFDPAKTLGGIHPTEIVLYFWVFTILIEEIRQLAAKPPKYIKDKVSVYFSDTWNFVDIFSLTVFIIAIILRFFTNSRIFTASRIILSLDIIFFIVRSLQIFSVNRLLGPKLVMIQKMMQDLAQFIIILAVFTIAYGIALHAVMFPSPGIYARNNTWVTITSVVQYPYWQMYGELFLDEIQGEKPKEFGEVDPDGRWLSPLLLAIYMVFTNILLLNLLIAIFNYTFERVQEDSDKVWKFQRYDLVQEYHSRPVFAPPLVLLGHILIFIRWVWRMCRCGHPPRGSTMKIGLSPAEMEQMDNWEFQAAEMYIHQQQQKNSGTLEERVRALGDRVDCINSQLNRVLDSMSGTRAHALTDGNGLEGGHDSEGRLARMEVELSSNSESLQKILALLQQQPPVKGQAAVPIQLTLLHYKARSSPYPGSTAKRFAVQDNMVDWQVPFPDYKPVNYTAPVVLANPVWADKDLMAMSPRPELPYNQMDHTCNVNRVSYNGTYVVKDGLPLNPMGRTGMQGRGLLGRFGPNHAADPVVTRWKRTSAGVMLQGGKKVLEFVAIQRKDNNQWAIPGGMVEPGQLVTQALKAEFGEEAMAKLNVSQEEKERIAKQIERLFQQGQEIYKGYVDDPRNTDNAWMETVAVNFHDDKGDLFGDITLQAGDDAAAVRWQRVSGNIPLYASHVSILEKVAKMRDAAF
modifications: two N-acetylglucosamines attached to N1017
notes: TRPM2 of Nematostella vectensis, full-length protein; synthesized gene; the C-terminal NUDT9H domain is residues 1271-1551; model holds residues 6-23, 41-51, 86-546, 573-755, 812-1136 and 1148-1210; the NUDT9H domain is present in the protein but not seen in the map; also called nvTRPM2; not shown: GFP, C-terminal, cleaved
- stoichiometry N: 4
